In patent US20140256918A1 (published 2014):

T1: C-terminal 6×His-tagged hCXCR5 whole receptor protein (human, UniProt P32302 1-372, crosslinked on the chip with NHS/EDC after capture)
T1 construct: mature; Purified whole receptor (monomers, dimers and trimers on SDS-PAGE), captured on a Ni-NTA chip and stabilized by limited crosslinking; also called human CXCR5 receptor; 6×His-hCXCR5
T1 sequence: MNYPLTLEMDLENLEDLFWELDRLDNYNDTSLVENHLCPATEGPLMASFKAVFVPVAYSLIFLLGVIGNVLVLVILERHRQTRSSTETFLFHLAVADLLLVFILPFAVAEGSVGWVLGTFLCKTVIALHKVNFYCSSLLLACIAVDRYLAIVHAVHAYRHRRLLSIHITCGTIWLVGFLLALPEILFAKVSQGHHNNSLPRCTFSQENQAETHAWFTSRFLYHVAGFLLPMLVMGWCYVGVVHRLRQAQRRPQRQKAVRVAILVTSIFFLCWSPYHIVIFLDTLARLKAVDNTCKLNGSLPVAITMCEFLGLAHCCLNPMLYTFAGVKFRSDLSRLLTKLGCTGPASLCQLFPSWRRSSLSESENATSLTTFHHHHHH


Columns and labels:
[1] = target: CD52 displayed on virus-like particles (CD52 VLP) (UniProt P31358); assay: SPR (Biacore), CD52 VLP captured by Campath and crosslinked on C1 chip, mAb injected
[2] = target: CD52 displayed on virus-like particles (CD52 VLP) (UniProt P31358); assay: SPR (Biacore), CD52 VLP captured by Campath and crosslinked on C1 chip, mAb injected; second curve
[3] = target: biotinylated N-terminal hCXCR5 peptide (human); assay: SPR (Biacore), reversed format, biotinylated peptide on SA chip at 5 RU; mean
[4] = target: biotinylated N-terminal hCXCR5 peptide (human); assay: SPR (Biacore), reversed format, biotinylated peptide on SA chip at 20 RU; mean
[5] = target: biotinylated N-terminal hCXCR5 peptide (human); assay: SPR (Biacore), reversed format, biotinylated peptide on SA chip at 100 RU; mean
[6] = target: biotinylated N-terminal hCXCR5 peptide (human); assay: SPR (Biacore), reversed format: biotinylated peptide on SA chip, mAb injected; mean
[7] = target: hCXCR5 N-terminal peptide (human); assay: SPR (Biacore), conventional format: mAb captured by anti-mouse antibody on CM5 chip, peptide injected; mean
[8] = target: C-terminal 6×His-tagged hCXCR5 whole receptor protein (human) (UniProt P32302); assay: SPR (Biacore), whole receptor captured and crosslinked on NTA chip at 300 RU, analyte injected; mean of triplicate
[9] = target: C-terminal 6×His-tagged hCXCR5 whole receptor protein (human) (UniProt P32302); assay: SPR (Biacore), whole receptor captured and crosslinked on NTA chip at 700 RU, analyte injected; mean of triplicate
[10] = target: biotinylated N-terminal hCXCR5 peptide (human); assay: SPR (Biacore), reversed format, biotinylated peptide on SA chip at 100 RU; mean; affected by avidity and artificial Koff
[11] = target: T1, C-terminal 6×His-tagged hCXCR5 whole …; assay: SPR (Biacore), whole receptor captured and crosslinked on NTA chip at 300 RU, analyte injected; mean of triplicate
Procedure: For direct capturing by an NTA SPR sensor chip, the purified 6×His-hCXCR5 protein was diluted to 50 ug/ml with HBS—N (from GE) buffer. An NTA reagent kit (GE) was used for chip surface preparation. The flow rate was set to 5 ul/ml and HBS—N was used as the running buffer. […] In order to stabilize native-like structure of the receptor captured on the chip surface, the commonly used amine coupling reagent NHS/EDC was tested at different concentrations as shown in FIGS. 11 and 12.
In order to assess the impact of the avidity effect on this capture and stabilization method, chip surfaces with different receptor densities were prepared.

[12] = target: T1, C-terminal 6×His-tagged hCXCR5 whole …; assay: SPR (Biacore), whole receptor captured and crosslinked on NTA chip at 700 RU, analyte injected; mean of triplicate
[13] = target: biotinylated N-terminal hCXCR5 peptide (human); assay: SPR (Biacore), reversed format, biotinylated peptide on SA chip at 100 RU; mean; called artificial, outside the Biacore accuracy limit
[14] = target: biotinylated N-terminal hCXCR5 peptide (human); assay: SPR (Biacore), reversed format: biotinylated peptide on SA chip; the reference of the comparison is not named (by Table 2, the other two clones)

Molecule	Kd [3]	koff [3]	kon [3]	Kd [4]	koff [4]	kon [4]	kon [5]	Kd [6]	koff [6]	kon [6]	Kd [7]	koff [7]	kon [7]	Kd [11]	koff [11]	kon [11]	Kd [12]	koff [12]	kon [12]	other results
anti-CD52 mAb (Campath) (antibody)																				Kd [1]: 5750 pM; koff [1]: 0.00109 s⁻¹; kon [1]: 189000 M⁻¹ s⁻¹; Kd [2]: 5810 pM; koff [2]: 0.000937 s⁻¹; kon [2]: 161000 M⁻¹ s⁻¹
mouse anti-hCXCR5 mAb MAB190 (antibody)	164 pM	0.000711 s⁻¹	4.33e+06 M⁻¹ s⁻¹	66.8 pM	0.000511 s⁻¹	7.65e+06 M⁻¹ s⁻¹	6.5e+06 M⁻¹ s⁻¹	141 pM	0.000595 s⁻¹	4.23e+06 M⁻¹ s⁻¹	656 pM	0.00027 s⁻¹	408000 M⁻¹ s⁻¹							Kd [5]: 39.4 pM; koff [5]: 0.000256 s⁻¹; Kd [8]: 610 pM; koff [8]: 0.000423 s⁻¹; kon [8]: 694000 M⁻¹ s⁻¹; Kd [9]: 256 pM; koff [9]: 0.000307 s⁻¹; kon [9]: 1.2e+06 M⁻¹ s⁻¹

Now from value to molecule, other results behind:

Kd [3]	koff [3]	kon [3]	Kd [4]	koff [4]	kon [4]	kon [5]	Kd [6]	koff [6]	kon [6]	Kd [7]	koff [7]	kon [7]	Kd [11]	koff [11]	kon [11]	Kd [12]	koff [12]	kon [12]	Molecule	other results
70.2 pM	4.71e-05 s⁻¹	681000 M⁻¹ s⁻¹	32.5 pM	2.7e-05 s⁻¹	832000 M⁻¹ s⁻¹	1.01e+06 M⁻¹ s⁻¹	65 pM	4.59e-05 s⁻¹	708000 M⁻¹ s⁻¹	503 pM	0.000241 s⁻¹	480000 M⁻¹ s⁻¹	39.9 pM	9.62e-06 s⁻¹	240000 M⁻¹ s⁻¹	39.6 pM	1.28e-05 s⁻¹	318000 M⁻¹ s⁻¹	mouse anti-hCXCR5 mAb clone 16D7 (antibody, V domains shown) VH: QVQLKESGPGLVAPSQSLSITCTVSGFSLIDYGVNWIRQPPGKGLEWLGVIWGDGTTYYNSALKSRLSIRKDNSQSQVFLKMNSLQTDDTAMYYCARIVYWGQGTLVTVSA VL: DIVMTQAAPSVAVTPRESVSISCRSSKSLLHSSGKTYLYWFLQRPGQSPQLLIYRMSNLASGVPDRFSGSGSGTAFTLRISRVEAEDVGVYYCMQHLEYPYTFGGGTKLEIK	Kd [10]: 0.0974 pM; koff [13]: 9.85e-08 s⁻¹; fold slower off-rate [14]: > 10 fold
													1370 pM	0.00718 s⁻¹	5.26e+06 M⁻¹ s⁻¹	891 pM	0.00553 s⁻¹	6.25e+06 M⁻¹ s⁻¹	CXCL13 (ligand, UniProt O43927 23-109, looked up, also called hCXCR5 ligand) VLEVYYTSLRCRCVQESSVFIPRRFIDRIQILPRGNGCPRKEIIVWKKNKSIVCVDPQAEWIQRMMEVLRKRSSSTLPVPVFKRKIP	
